# Data as given in paper PMC9308760 (Molecular cell, 2022).
# T1: TnsB wild type (Escherichia coli (Tn7), UniProt P13989 1-702)
# T1 sequence: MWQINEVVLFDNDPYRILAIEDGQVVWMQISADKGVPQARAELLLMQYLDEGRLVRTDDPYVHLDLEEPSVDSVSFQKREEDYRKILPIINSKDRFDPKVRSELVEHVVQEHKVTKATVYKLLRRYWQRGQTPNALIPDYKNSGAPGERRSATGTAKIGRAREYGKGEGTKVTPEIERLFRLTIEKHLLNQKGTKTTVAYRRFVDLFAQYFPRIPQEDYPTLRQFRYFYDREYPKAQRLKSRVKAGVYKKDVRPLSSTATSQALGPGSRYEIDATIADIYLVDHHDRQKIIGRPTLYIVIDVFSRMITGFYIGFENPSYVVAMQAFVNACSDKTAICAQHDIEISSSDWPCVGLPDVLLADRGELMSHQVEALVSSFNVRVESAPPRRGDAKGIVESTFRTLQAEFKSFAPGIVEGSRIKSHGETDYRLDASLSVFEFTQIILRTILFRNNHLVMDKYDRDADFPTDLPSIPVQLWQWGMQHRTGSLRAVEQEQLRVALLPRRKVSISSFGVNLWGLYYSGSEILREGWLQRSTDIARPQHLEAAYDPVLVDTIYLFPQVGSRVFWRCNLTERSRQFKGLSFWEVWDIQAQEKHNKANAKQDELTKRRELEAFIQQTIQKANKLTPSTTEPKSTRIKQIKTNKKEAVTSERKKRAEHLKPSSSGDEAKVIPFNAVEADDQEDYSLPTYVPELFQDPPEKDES
# T2: TnsB Δ245-251 (Escherichia coli (Tn7), UniProt P13989 1-702, del245-251)
# T2 sequence: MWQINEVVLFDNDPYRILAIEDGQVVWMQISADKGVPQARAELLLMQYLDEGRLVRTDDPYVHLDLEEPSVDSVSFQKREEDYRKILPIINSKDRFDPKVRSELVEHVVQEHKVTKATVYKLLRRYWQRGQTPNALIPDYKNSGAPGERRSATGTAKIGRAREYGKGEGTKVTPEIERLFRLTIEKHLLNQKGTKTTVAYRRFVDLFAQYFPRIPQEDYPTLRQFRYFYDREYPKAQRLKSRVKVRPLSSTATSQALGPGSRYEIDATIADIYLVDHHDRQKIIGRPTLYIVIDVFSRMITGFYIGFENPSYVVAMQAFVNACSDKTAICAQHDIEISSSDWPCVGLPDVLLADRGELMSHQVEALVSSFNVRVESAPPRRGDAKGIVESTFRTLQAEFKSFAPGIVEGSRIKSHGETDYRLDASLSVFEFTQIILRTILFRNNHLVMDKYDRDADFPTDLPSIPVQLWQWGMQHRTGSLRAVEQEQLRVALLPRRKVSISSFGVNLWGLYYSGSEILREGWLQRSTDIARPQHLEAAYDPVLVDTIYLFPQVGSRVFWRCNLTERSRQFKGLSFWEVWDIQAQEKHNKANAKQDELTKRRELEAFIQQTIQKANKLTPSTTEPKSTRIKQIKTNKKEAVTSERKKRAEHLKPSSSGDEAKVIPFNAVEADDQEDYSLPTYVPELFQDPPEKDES
# B1: Tn7 transposase TnsB (E. coli), wild type (enzyme, UniProt P13989 1-702, looked up)
# chain: MWQINEVVLFDNDPYRILAIEDGQVVWMQISADKGVPQARAELLLMQYLDEGRLVRTDDPYVHLDLEEPSVDSVSFQKREEDYRKILPIINSKDRFDPKVRSELVEHVVQEHKVTKATVYKLLRRYWQRGQTPNALIPDYKNSGAPGERRSATGTAKIGRAREYGKGEGTKVTPEIERLFRLTIEKHLLNQKGTKTTVAYRRFVDLFAQYFPRIPQEDYPTLRQFRYFYDREYPKAQRLKSRVKAGVYKKDVRPLSSTATSQALGPGSRYEIDATIADIYLVDHHDRQKIIGRPTLYIVIDVFSRMITGFYIGFENPSYVVAMQAFVNACSDKTAICAQHDIEISSSDWPCVGLPDVLLADRGELMSHQVEALVSSFNVRVESAPPRRGDAKGIVESTFRTLQAEFKSFAPGIVEGSRIKSHGETDYRLDASLSVFEFTQIILRTILFRNNHLVMDKYDRDADFPTDLPSIPVQLWQWGMQHRTGSLRAVEQEQLRVALLPRRKVSISSFGVNLWGLYYSGSEILREGWLQRSTDIARPQHLEAAYDPVLVDTIYLFPQVGSRVFWRCNLTERSRQFKGLSFWEVWDIQAQEKHNKANAKQDELTKRRELEAFIQQTIQKANKLTPSTTEPKSTRIKQIKTNKKEAVTSERKKRAEHLKPSSSGDEAKVIPFNAVEADDQEDYSLPTYVPELFQDPPEKDES
# B2: 2BSL (dsDNA)
# DNA 1: CCCAGTTCCCATCTATTTTGTCACTCTTCCCTAAATAATCCTTAAAAACTCCATTTCCACCCCTCCCAGTTCCCAACTATTTTGTCCGCCCACA
# DNA 2: TGTGGGCGGACAAAATAGTTGGGAACTGGGAGGGGTGGAAATGGAGTTTTTAAGGATTATTTAGGGAAGAGTGACAAAATAGATGGGAACTGGG
# B3: TnsB variant with a shorter DBD2-CD linker (Δ245–251) (enzyme, E. coli)
# chain: MWQINEVVLFDNDPYRILAIEDGQVVWMQISADKGVPQARAELLLMQYLDEGRLVRTDDPYVHLDLEEPSVDSVSFQKREEDYRKILPIINSKDRFDPKVRSELVEHVVQEHKVTKATVYKLLRRYWQRGQTPNALIPDYKNSGAPGERRSATGTAKIGRAREYGKGEGTKVTPEIERLFRLTIEKHLLNQKGTKTTVAYRRFVDLFAQYFPRIPQEDYPTLRQFRYFYDREYPKAQRLKSRVKVRPLSSTATSQALGPGSRYEIDATIADIYLVDHHDRQKIIGRPTLYIVIDVFSRMITGFYIGFENPSYVVAMQAFVNACSDKTAICAQHDIEISSSDWPCVGLPDVLLADRGELMSHQVEALVSSFNVRVESAPPRRGDAKGIVESTFRTLQAEFKSFAPGIVEGSRIKSHGETDYRLDASLSVFEFTQIILRTILFRNNHLVMDKYDRDADFPTDLPSIPVQLWQWGMQHRTGSLRAVEQEQLRVALLPRRKVSISSFGVNLWGLYYSGSEILREGWLQRSTDIARPQHLEAAYDPVLVDTIYLFPQVGSRVFWRCNLTERSRQFKGLSFWEVWDIQAQEKHNKANAKQDELTKRRELEAFIQQTIQKANKLTPSTTEPKSTRIKQIKTNKKEAVTSERKKRAEHLKPSSSGDEAKVIPFNAVEADDQEDYSLPTYVPELFQDPPEKDES
# B4: 3BS (dsDNA)
# DNA 1: CTAGTTTAAGACTTTATTGTCATAGTTTAGATCTATTTTGTTCAGTTTAAGACTTTATTGTCCGCCCACA
# DNA 2: TGTGGGCGGACAATAAAGTCTTAAACTGAACAAAATAGATCTAAACTATGACAATAAAGTCTTAAACTAG
# Assays:
# cryo-EM structure = target: the molecule itself; test: cryo-EM structure
# TnsB wild type = target: T1, TnsB wild type; test: EMSA
# negative-stain EM = target: the molecule itself; test: negative-stain EM
# TnsB Δ245-251 = target: T2, TnsB Δ245-251; test: EMSA
binder,measurement,setting,value
B1,binding result,cryo-EM structure,binds
B2,Kd,TnsB wild type,85 ± 4 nM
B3,binding result,negative-stain EM,binds
B4,binding result,TnsB Δ245-251,binds
